# Source: US7732178B2, “Laccase enzymes and their uses” (AB Enzymes Oy, priority 2004, dated 2010)
# Values joined by “and” are separate entries in the source; they are usually repeats but may differ in a detail not shown here. Equal entries are not always repeated. Where two headings read alike, the source gives them in different places.
# Key:
# [1] = test system: Thielavia arenaria ALKO4197 laccase TaLcc4, recombinant, SEQ ID NO: 45; test: Kinetic parameters of TaLcc4; assay type: biochemical
# Procedure: (§1) On syringaldazin and DMP 40 mM MES buffer, pH 6 was used. All activity assays were carried out at 25° C. Kinetic parameters were estimated by a nonlinear regression curve fit. The values were compared to those of Melanocarpus albomyces MaL, laccase.
# [2] = target: T1, Melanocarpus albomyces laccase (MaL) (Melanocarpus albomyces, UniProt Q70KY3); test: Kinetic parameters of MaL; assay type: biochemical
# T1 sequence (Q70KY3 51-609): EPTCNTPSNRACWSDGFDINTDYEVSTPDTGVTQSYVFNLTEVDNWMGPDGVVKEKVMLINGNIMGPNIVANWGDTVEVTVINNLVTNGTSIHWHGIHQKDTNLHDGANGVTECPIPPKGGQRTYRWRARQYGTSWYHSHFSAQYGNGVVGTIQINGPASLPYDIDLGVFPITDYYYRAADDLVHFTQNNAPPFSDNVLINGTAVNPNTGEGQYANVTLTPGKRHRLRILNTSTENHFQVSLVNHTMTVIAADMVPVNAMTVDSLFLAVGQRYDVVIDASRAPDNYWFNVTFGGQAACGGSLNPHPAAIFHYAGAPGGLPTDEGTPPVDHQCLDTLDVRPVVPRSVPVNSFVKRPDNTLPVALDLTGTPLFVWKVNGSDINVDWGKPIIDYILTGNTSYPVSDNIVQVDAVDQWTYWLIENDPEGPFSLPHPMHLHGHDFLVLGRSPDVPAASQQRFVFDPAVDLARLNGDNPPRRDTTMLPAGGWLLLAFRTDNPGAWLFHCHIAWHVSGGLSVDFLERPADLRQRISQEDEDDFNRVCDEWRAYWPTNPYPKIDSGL
# Procedure: as §1
# [3] = test system: Thielavia arenaria ALKO4197 laccase TaLcc3, recombinant, SEQ ID NO: 43; test: Kinetic parameters of TaLcc3; assay type: biochemical
# Procedure: as §1
# [4] = target: T2, Thielavia arenaria ALKO4197 laccase TaLcc1, recombinant, SEQ ID NO: 39 (Canariomyces arenarius, UniProt F6N9E7); assay type: biochemical
# T2 construct: plasmid pALK1342 (DSM 15484)
# T2 sequence (F6N9E7 entry or part of it): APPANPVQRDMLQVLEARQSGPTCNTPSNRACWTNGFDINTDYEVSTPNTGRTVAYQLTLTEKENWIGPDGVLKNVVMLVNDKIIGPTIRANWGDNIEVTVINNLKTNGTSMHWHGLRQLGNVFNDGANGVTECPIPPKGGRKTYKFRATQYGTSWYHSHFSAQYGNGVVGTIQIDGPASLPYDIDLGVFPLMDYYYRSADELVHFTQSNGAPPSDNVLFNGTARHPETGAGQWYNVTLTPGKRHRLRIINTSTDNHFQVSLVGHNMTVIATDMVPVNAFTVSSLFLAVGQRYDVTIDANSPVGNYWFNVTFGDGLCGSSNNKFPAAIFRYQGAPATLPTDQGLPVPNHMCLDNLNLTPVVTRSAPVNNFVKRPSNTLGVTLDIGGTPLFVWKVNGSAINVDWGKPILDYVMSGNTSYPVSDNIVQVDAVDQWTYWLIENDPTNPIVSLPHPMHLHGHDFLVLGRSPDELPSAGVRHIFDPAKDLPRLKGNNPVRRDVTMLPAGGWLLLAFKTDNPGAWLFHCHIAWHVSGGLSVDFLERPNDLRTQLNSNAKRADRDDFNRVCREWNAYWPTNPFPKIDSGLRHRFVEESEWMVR
# Procedure: as §1
# [5] = test system: wild type Chaetomium (CtL) laccase; assay type: biochemical, Chaetomium thermophilum; details: pH 5
# [6] = Specific activity towards syringaldazine; assay type: biochemical; details: 25 mM MES buffer, pH 5.5
# Procedure: (§2) Specific activities of the purified T. arenaria and C. thermophilum laccases were determined towards different laccase substrates.
# [7] = Denim bleaching at different temperatures; design: key to After laccase treatment L* / After laccase treatment b* / Increase of L*: CIE L*a*b* colour coordinates (illuminant D65), reflectance; details: face side of denim; 30 min, 40° C., pH 6; enzyme 200 nkat/g, mediator 10 mg/g
# Procedure: (§3) Lee Cooper jeans (MASI Company Oy, Finland) that were desized and treated with neutral ECOSTONE® cellulase were used as test material. Laccase treatments were performed in LP-2 Launder Ometer as follows. About 10 g of denim swatches (15×14 cm) were loaded into 1.2 liter containers containing 200 ml Mc Ilvaine's citrate phosphate buffer pH 5, 6 or 7 and the containers were temperated. Enzyme with or without the mediator (methyl syringate, DeniLite II Assist, Novozymes) was added as laccase activity units. Enzyme was dosed 200 nkat/g and the mediator 10 mg/g on the weight of fabric. […] The Launder Ometer was run at 50° C. for 30 min and after that the temperature in Launder was raised to 80° C. for 10 min. The swatches were carefully rinsed with warm water, dried half-dry in a tumbler and after that air dried.
# (§4) The bleaching effect was evaluated by measuring the colour as reflectance values with the Minolta Chromameter CM 1000 (Minolta Co.) using L*a*b* color space coordinates (illuminant D65). The colour from both sides of the swatches was measured before and after the laccase treatment. Each measurement was the average of several measurements.
# The test system and denim were as in Example 7, except that the conditions during the laccase and mediator treatment in Launder were 30 min, pH 6 and temperature 30-70° C. (DeniLite II Base also at 80° C.) and the enzyme was inactivated by alkaline treatment instead of raising the temperature in Launder as follows. After removing swatches from the containers they were soaked in warm water containing NaOH (pH 11.5) for 10 min and rinsed carefully with warm water. The swatches were dried half-dry in a tumbler and after that air dried. The bleaching effect was evaluated by measuring the colour as reflectance values as in Example 7.
# [8] = Stain removal, grass soiling; design: key to Grass L* / Grass a* / Grass b*: CIE L*a*b* color coordinates from reflectance; details: for Grass L* / Grass a* / Grass b*: 60 min, pH 6
# Procedure: (§5) Laccases CtLcc1, TaLcc2, TaLcc4 and Denilite II Base (Example 7) were tested for their ability to remove stains. The following artificially soiled test cloths were used: grass soiling (Art.164, EMPA Testmaterialen, Germany), tea soiling (Art. 167, EMPA Testmaterialen, Germany). The fabric was cut in 5.8×5.8 cm swatches. Laccase treatments were performed in LP-2 Launder Ometer as follows. About 5 g of soiled fabrics were loaded into 1.2 liter containers containing 150 ml Mc Ilvaine's citrate phosphate buffer pH 6 and the containers were temperated. Enzyme with or without the mediator (methyl syringate, DeniLite II Assist, Novozymes) was added as laccase activity units (Example 7). Enzyme was dosed 200 nkat/g and the mediator 10 mg/g on the weight of fabric, except at 40° C. dosages of 20 nkat/g and 2 mg/g were also used. The Launder Ometer was run at 40, 50 or 60° C. and pH 6 for 60 min. After that the swatches were carefully rinsed under running water and in shake flasks containing warm water and dried in the air.
# (§6) The stain removal effect was evaluated by measuring the colour as reflectance values using L*a*b* color space coordinates (Example 7). The colour of the swatches was measured before and after the laccase treatment.
# [9] = Denim bleaching at different pH values; design: key to After laccase treatment L* / After laccase treatment b* / Increase of L*: CIE L*a*b* colour coordinates (illuminant D65), Minolta reflectance; details: face side of denim, 30 min, 50° C.
# Procedure: as §3, §4
# [10] = Specific activity towards di-methoxy-phenol (DMP); assay type: biochemical; details: 25 mM MES buffer, pH 5.5
# Procedure: as §2
# [11] = Specific activity towards ABTS; assay type: biochemical; details: 25 mM succinate buffer pH 4.5, 25° C.
# Procedure: The activity assay was carried out in accordance with the method developed by Niku-Paavola et al. (1988). The sample was diluted with 0.025 M succinate buffer, pH 4.5. […] The activity is expressed as nano katals.
# as §2
# [12] = Stain removal, tea soiling; design: key to Tea L* / Tea a* / Tea b*: CIE L*a*b* color coordinates from reflectance; details: 60 min, pH 6
# Procedure: as §5, §6
# [13] = Isoelectric focusing (pI); assay type: physicochemical; details: pH range 3-9
# Procedure: Molecular weight of the T. arenaria and C. thermophilum laccases were determined on SDS-PAGE according to Laemmli (1970) The gels used in the SDS-PAGE analysis were ready-made 12% Tris HCl gels (BioRad). Protein bands were visualized by staining with Coomassie Brilliant Blue (R 350; Pharmacia) and compared with molecular weight markers (Prestained Protein Marker Broad Range #7708S; New England BioLabs, Beverly, Mass.). The molecular weight of the both laccases was approximately 80 kDa. The isoelectric point of the laccases was determined with isoelectric focusing within the pH range of 3-9 (Pharmalyte IEF, Pharmacia) on a LKB 2117 Multiphor II Electrophoresis System (LKB Pharmacia, Bromma, Sweden) according to the manufacturer's instructions.
# The purified recombinant Thielavia and Chaetomium laccases were characterized in terms of pH optimum, thermal stability, and pI as described in Example 2. The molecular weight was determined by MALDI-TOF mass spectrometry on a Ultraflex™ time-of-flight instrument (BrukerDaltonics, Germany) as previously described (Palonen et al., 2003). The redox-potentials of the T1 coppers of for CtLcc, and TaLcc2 laccases were determined by photometric copper titration in 0.1 M KH2PO4 (pH 6.0) as described by Xu et al. (1996) using the redox titrant couple K3Fe(CN)6/K4Fe(CN)6. The redox potential of TaLcc1 was determined with a combined Pt—AgCl/KCl microelectrode at pH 5.0 according to Sigoillot et al (2004). The characterization results are collected to Table 14.
# [14] = Specific activity towards guaiacol; assay type: biochemical; details: 25 mM MES buffer, pH 5.5
# Procedure: as §2
# [15] = 25 mM succinate buffer pH 4.5, 25° C.
# [16] = 40° C., enzyme 20 nkat/g + mediator 2 mg/g (Mediator only: 0 nkat/g)
# [17] = 40° C., enzyme 200 nkat/g + mediator 10 mg/g (Mediator only: 0 nkat/g)
# [18] = 40° C., enzyme 200 nkat/g, mediator 0 mg/g
# [19] = 50° C., enzyme 200 nkat/g + mediator 10 mg/g (Mediator only: 0 nkat/g)
# [20] = pH 5, enzyme 200 nkat/g without the mediator, or mediator 10 mg/g alone
# [21] = pH 5, enzyme 200 nkat/g, mediator 10 mg/g
# [22] = pH 6, enzyme 200 nkat/g without the mediator, or mediator 10 mg/g alone
# [23] = pH 6, enzyme 200 nkat/g, mediator 10 mg/g
# [24] = pH 7, enzyme 200 nkat/g without the mediator, or mediator 10 mg/g alone
# [25] = pH 7, enzyme 200 nkat/g, mediator 10 mg/g
molecule,measurement,setting,value
"CCn1c(=NN=c2sc3cc(S(=O)(=O)O)ccc3n2CC)sc2cc(S(=O)(=O)O)ccc21 [ABTS, 2,2′azinobis-3-ethylbenzthiazole-6-sulphonate]",Km,[1]; [15],2.47 mM
same,kcat,[1]; [15],8610 min⁻¹
same,kcat,[2]; pH 4.5,4690 min⁻¹
same,Km,[3]; [15],1040 µM
same,kcat,[3]; [15],37 min⁻¹
same,Km,[4]; pH 4.5,75 µM
same,kcat,[4]; pH 4.5,4130 min⁻¹
"COc1cccc(OC)c1O [DMP, 2,6-dimethoxy phenol]",Km,"[1]; 40 mM MES buffer, pH 6, 25° C.",1.9 mM
same,kcat,"[1]; 40 mM MES buffer, pH 6, 25° C.",1590 min⁻¹
same,kcat,"[2]; 40 mM MES buffer, pH 6, 25° C.",4160 min⁻¹
same,Km,"[3]; 40 mM MES buffer, pH 6, 25° C.",14 µM
same,kcat,"[3]; 40 mM MES buffer, pH 6, 25° C.",5 min⁻¹
same,Km,"[4]; 40 mM MES buffer, pH 6, 25° C.",17 µM
same,kcat,"[4]; 40 mM MES buffer, pH 6, 25° C.",4030 min⁻¹
[F-].[Na+] [NaF],Inhibition (%) CtL,[5],40% and 70%
"TaLcc4: Thielavia arenaria ALKO 4197 laccase, SEQ ID NO: 45, produced in Trichoderma reesei (protein, Thielavia arenaria ALKO4197; (1)..(573) Deduced amino acid sequence of Thielavia arenaria ALKO4197 TaLcc4) MISRLLFTSSFTATLASALPGLLYAPHSSALLARSSCSGNTASTRSQWCDYSIDTDYTTEPVDTGVTREYWLELTDVTVSPDGVSRSAMAVNGSIPGPTIFADWGDTVVVHVTNSLSTSLNGTSIHWHGIRQNYTNQNDGVASITQCPLAVGESTTYTWKATQYGSSWYHSHFSLQAWEGVFGGIIINGPSTANYDEDLGMLFLNDWDHQTVDELYSSAETSGPPTLANGLINGTNVYGEDGDSSQTGTRLAVSFTSGTSYRMRLVNAAVDTHWKFSIGNHTMTVMAADLVPIEPYETTVLTIGMGQRYDIVVTADQADVADNFWMRAIPQSACSDNDSADNIRGIVYYGDSPGTPSTTGYDFEDACDDETANITPYISKTVSSAEWNDLETASVSRNSAGLFKWYLNSTTMLVDWAKPTLEMVTDNVTEYDSDDAIIELNEANQWVYMVVQTTLQVPHPIHLHGHDFFILAQGSGTYDSSTVTLKTDNPPRRDTAMLPSQGYLVMAWETDNPGVWLMHCHIGWHTSEGFALQFIERKSEIASIVSTSTMKDICTKWEEFQEEYSIEQEDSGV",Specific activity on syringaldazin,[6],52 nkat/mg
same,After laccase treatment L*,[7],29.23
same,After laccase treatment b*,[7],−18.44
same,Increase of L*,[7],0.12
same,greenness reduced (grass),[8]; 50° C.,ca. 2 units
same,Grass L*,[8]; [16],78.53
same,Grass a*,[8]; [16],−6.07
same,Grass b*,[8]; [16],19.33
same,Grass L*,[8]; [17],78.94
same,Grass a*,[8]; [17],−3.77
same,Grass b*,[8]; [17],16.77
same,Grass L*,[8]; [18],79.84
same,Grass a*,[8]; [18],−4.98
same,Grass b*,[8]; [18],17.62
same,Grass L*,[8]; [19],78.62
same,Grass a*,[8]; [19],−4.00
same,Grass b*,[8]; [19],17.16
same,After laccase treatment L*,[9]; [20],29.40
same,After laccase treatment b*,[9]; [20],−18.70
same,Increase of L*,[9]; [20],−0.04
same,After laccase treatment L*,[9]; [21],29.17
same,After laccase treatment b*,[9]; [21],−18.47
same,Increase of L*,[9]; [21],1.01
same,After laccase treatment L*,[9]; [22],27.68
same,After laccase treatment b*,[9]; [22],−18.76
same,Increase of L*,[9]; [22],0.24
same,After laccase treatment L*,[9]; [23],29.55
same,After laccase treatment b*,[9]; [23],−18.11
same,Increase of L*,[9]; [23],1.35
same,After laccase treatment L*,[9]; [24],29.29
same,After laccase treatment b*,[9]; [24],−18.89
same,Increase of L*,[9]; [24],0.50
same,After laccase treatment L*,[9]; [25],28.31
same,After laccase treatment b*,[9]; [25],−18.33
same,Increase of L*,[9]; [25],0.47
same,Specific activity on DMP,[10],110 nkat/mg
same,Specific activity on ABTS,[11],1000 nkat/mg
same,Tea L*,[12]; [16],75.09
same,Tea a*,[12]; [16],5.73
same,Tea b*,[12]; [16],22.08
same,Tea L*,[12]; [17],74.56
same,Tea a*,[12]; [17],5.58
same,Tea b*,[12]; [17],23.55
same,Tea L*,[12]; [18],76.74
same,Tea a*,[12]; [18],5.05
same,Tea b*,[12]; [18],21.67
same,Tea L*,[12]; [19],75.13
same,Tea a*,[12]; [19],5.19
same,Tea b*,[12]; [19],22.44
same,pI,[13],3.0
same,Specific activity on guaiacol,[14],5 nkat/mg
